We go through 6 proteins from publication PMC11509930, “Improving Hydrolytic Activity and Enantioselectivity of Epoxide Hydrolase from Phanerochaete chrysosporium by Directed Evolution” (Molecules, 2024).

Residue numbers refer to the chain shown, from its start. In names and notes the source's numbering stands.

B1: PchEHA (epoxide hydrolase) (Phanerodontia chrysosporium; G14A/K291R/Y163H) (protein)
chain: MDASLFKDFKTSRAFNYHYFYSPAKGPRPTLFFLHGNPSVATDWAQIVPHFTSRGYGVLAPDMLGYGDTDKPTDPALYVSSGMCRNLVDLLDHEGLEKVIAIGHDWGCLSVSRLASYYPERVIAYAFLAASFIGPIPPIPFDAFLEYIKQQVGYELYGYWKFHSEPGLDQFVRDHLDTFLSILWPSDPAVWKTRLAPTGALKQSALEGWTAPLAPYITEEFKKHHVEVFNKNGFEAPACYYRIMTSGLQAEDDKQILPERAVPPKDAPVFFGAANKDYICIPALAYATFKRDEWKDHKITIKEYDADHWLILSHADQVSRDLEAWIEGFASGGQ
notes: catalytic triad D105/H308/D277
B2: PchEHA (epoxide hydrolase) (Phanerodontia chrysosporium; E251G/G14A/K291R) (protein)
chain: B1 chain with H163Y, E251G
notes: as for B1
B3: PchEHA (epoxide hydrolase) (Phanerodontia chrysosporium; E251G/Y163H) (protein)
chain: B1 chain with A14G, E251G, R291K
notes: as for B1
B4: PchEHA (epoxide hydrolase) (Phanerodontia chrysosporium; C108S/G14A/K291R) (protein)
chain: B1 chain with C108S, H163Y
notes: as for B1
B5: PchEHA (epoxide hydrolase) (Phanerodontia chrysosporium; A24T/E251G) (protein)
chain: B1 chain with A14G, A24T, H163Y, E251G, R291K
notes: as for B1
B6: PchEHA (epoxide hydrolase) (Phanerodontia chrysosporium) (protein)
chain: B1 chain with A14G, H163Y, R291K
notes: as for B1

Substrate in one series: c1ccc([C@@H]2CO2)cc1
Kind of series: purified protein. The following applies: 10-80 mM SO, 37 °C, buffer pH 8.0. The series is classed as biochemical, Phanerodontia chrysosporium.
As to B1, the Km was 20.36 ± 1.34 mM, the catalytic constant (kcat) was found to be 2480 ± 52.4 s⁻¹ and the kcat/Km is 122000 M⁻¹ s⁻¹.

Take B2: the Km was 22.6 ± 1.75 mM, the turnover number (kcat) was 2250 ± 59 s⁻¹ and the specificity constant (kcat/Km) stood at 99600 M⁻¹ s⁻¹.

Regarding B3, the Michaelis constant (Km) is recorded as 14.16 ± 1.19 mM, the catalytic constant (kcat) came out at 2350 ± 52.3 s⁻¹ and the kcat/Km was found to be 166000 M⁻¹ s⁻¹.

For the protein B4, the Km is 21.71 ± 2.6 mM, the turnover number (kcat) was 3020 ± 120 s⁻¹ and the catalytic efficiency (kcat/Km) was 139000 M⁻¹ s⁻¹.

Consider B5, for which the Km is recorded as 26.28 ± 3.79 mM, the kcat stood at 1660 ± 87.3 s⁻¹ and the kcat/Km is 63100 M⁻¹ s⁻¹.

Consider B6, for which the Michaelis constant (Km) turned out to be 25.75 ± 2.08 mM, the catalytic constant (kcat) came out at 1740 ± 50.8 s⁻¹ and the kcat/Km is 67500 M⁻¹ s⁻¹.

Substrate in the next series: c1ccc([C@H]2CO2)cc1
The experiment in a line: purified protein. The series is classed as biochemical, Phanerodontia chrysosporium. The following applies: 10-80 mM SO, 37 °C, buffer pH 8.0.
Turning to B1, the Km is given as 57.82 ± 7.75 mM and the catalytic efficiency (kcat/Km) stood at 36000 M⁻¹ s⁻¹.

In the case of B2, the Km stood at 41.96 ± 2.07 mM and the kcat/Km came out at 38300 M⁻¹ s⁻¹.

In the case of B3, the Km is recorded as 30.39 ± 2.99 mM and the kcat/Km stood at 32500 M⁻¹ s⁻¹.

For B4, the Km stood at 51.04 ± 2.04 mM and the kcat/Km amounted to 19700 M⁻¹ s⁻¹.

For B5, the Km is 43.98 ± 3.94 mM and the specificity constant (kcat/Km) was 25900 M⁻¹ s⁻¹.

With B6, the Michaelis constant (Km) came to 39.23 ± 4.49 mM and the kcat/Km is 34400 M⁻¹ s⁻¹.
